Measured values from the supplement of paper PMC12764529.
± gives the half width of the 95% confidence interval.

What was measured:
[1] = folding stability dG unfold (combined trypsin and chymotrypsin); higher = more stable
Summary of the method: (§1)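 Designed mini-proteins (under 80 residues, no cysteine) in a PA-tagged cDNA display construct were digested with trypsin and chymotrypsin. Each protease was used at 11 concentrations (threefold dilutions) plus a no-protease condition, followed by sequencing. K50 was inferred by Bayesian fitting of sequencing counts, and unfolding free energy was derived against a sequence-predicted unfolded-state K50 and a shared folded-state K50, per protease or combined. Only designs with AlphaFold2 dimer inter-PAE above 15 were kept.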

[2] = folding stability dG unfold from trypsin proteolysis; higher = more stable
Summary of the method: as §1

[3] = folding stability dG unfold from chymotrypsin proteolysis; higher = more stable
Summary of the method: as §1

| Sequence | folding stability dG unfold [1] | folding stability dG unfold [2] | folding stability dG unfold [3] |
| --- | --- | --- | --- |
| SAPKNYRFKIYFPNGVEFTIPPGWDLEIEEFDPEDGVIRIKMTRYDKDDGKPVEKHDFPFPFRILEPDPSAG [r14_927_TrROS] | 1.89 ± 0.25 kcal/mol | 1.73 ± 0.06 kcal/mol | 1.84 ± 0.23 kcal/mol |
| SAGGSAMLPDEVTVKPVEMPVPPDLTLEELEQEVRERAGPGTSVEVSYDPATGVATVTVTDARPALSAGGSA [r15_749_JUSTAS] | 1.03 ± 0.04 kcal/mol | -0.162 ± 0.035 kcal/mol | 1.44 ± 0.029 kcal/mol |
| SAGGMKVEKNTIYIEVEKDMSAEEVAKKIAEELKKKGLKVEIKVEKKEDGTKVIRIKVDGKEIEIYASAGGS [r16_771_TrROS_Hall] | 1.51 ± 0.3 kcal/mol | 1.84 ± 0.094 kcal/mol | 1.13 ± 0.18 kcal/mol |
| SAGGSAGGSAGGDNFEIEPDISWNPDYGYISIDWTVTIGGKEQPFTIMIPVRLPPPPEDDSAGGSAGGSAGG [r7_413_TrROS] | 1.14 ± 0.22 kcal/mol | 1.41 ± 0.099 kcal/mol | 0.712 ± 0.15 kcal/mol |
| SAGGSAMTPVTLEITSEEELEAKIEELAPPGRTVTINVTSTTEKTRVEDDVTRDYTVVTANVTFPPSAGGSA [r15_95_JUSTAS] | 0.399 ± 0.12 kcal/mol | 0.181 ± 0.1 kcal/mol | 0.573 ± 0.04 kcal/mol |
| SAGPIKELLEFLKANPDAVVEFEFTLPNGAKVKIKAKKFPDAVVLEVTTIDPNNKKPITGTITIPLPESAGG [r19_143_TrMRF] | 3.81 ± 0.13 kcal/mol | 4.15 ± 0.13 kcal/mol | 3.49 ± 0.072 kcal/mol |
| SSISPSSTLTFSKPFPDDDINAVKEFAEKLAKEIGPDVSVVKIEKDPNNPNKVTITISVPGTSITVNFSNSA [r9_1079_JUSTAS] | 1.01 ± 0.14 kcal/mol | 1.09 ± 0.054 kcal/mol | 0.664 ± 0.26 kcal/mol |
| SAGGSAGGSAMEITITVPKENEEEVLEAAKKALEELGIEEVKVEKLEDGTYKVTARVKPGLSAGGSAGGSAG [r3_335_TrROS_Hall] | 0.361 ± 0.2 kcal/mol | 0.325 ± 0.12 kcal/mol | 0.219 ± 0.14 kcal/mol |
| SAGDTISIMIPPGMSGERAVNQIKYIAREQKENGKKRKITIWMPDPMRARFIKKALDEKGIPIEIEFWSAGG [r19_268_TrROS] | 1 ± 0.1 kcal/mol | 1.24 ± 0.049 kcal/mol | 0.766 ± 0.11 kcal/mol |
| GMTIVPPSSPVTDSSGNYEEYPDSQLYKDSSTGKPIIAFPMSPEELAAGDPAALARREALAKEYGLPEIEPS [r1_438_JUSTAS] | 0.0139 ± 0.25 kcal/mol | -0.579 ± 0.35 kcal/mol | 0.0509 ± 0.37 kcal/mol |
| SAGEIAEYIAEYLAQEPGFQDVEVNIKITDIEPPPNGYMYHKIDIHVRVRNPDDGKPREVNFDITFPMPSAG [r5_176_TrROS] | 1.7 ± 0.17 kcal/mol | 1.1 ± 0.084 kcal/mol | 1.83 ± 0.068 kcal/mol |
| SAGGSAGGSAGGMEFKPGQEIEIVLKDENGRLIVIKAKVKKVDGKLVIEIEEAYELDDLSAGGSAGGSAGGS [r10_744_TrROS_Hall] | 2.05 ± 0.26 kcal/mol | 2.34 ± 0.12 kcal/mol | 2 ± 0.14 kcal/mol |
| SAGGIIIYPKDPDGKQRPIPPEVIRRIVDTIARRYGFEIKIDIEIEPTNDYWVITIPIEIEGLPPEQLSAGG [r13_790_TrROS] | 2.18 ± 0.086 kcal/mol | 1.87 ± 0.06 kcal/mol | 2.23 ± 0.068 kcal/mol |
| SALKIEISFPGNAGEVRERVLGREDGSYEVEFLVTFPTPGDGIPSVLRVTYRVDPVSGKIEPRLEPVDASAG [r14_590_TrMRF] | 2.65 ± 0.052 kcal/mol | 1.48 ± 0.025 kcal/mol | 3.24 ± 0.036 kcal/mol |
| SASLVVRLPDGTEILFENLSLEEVVKLFDGGEIEIEPVPKLPVVNASSLEEAEEIAEKLKPDFVITLSGSAG [r14_445_TrMRF] | 1.61 ± 0.074 kcal/mol | 1.6 ± 0.088 kcal/mol | 1.6 ± 0.044 kcal/mol |
| SAGGSAGGSAEDVVLKVKIEIPSSDGTLLEIDEAIYNPKPGTLHFKIRSPDGSEFEIEIPLDSAGGSAGGSA [r18_370_TrMRF] | 1.12 ± 0.082 kcal/mol | 0.725 ± 0.033 kcal/mol | 1.44 ± 0.13 kcal/mol |
| SAGGSAGGSAGMVIERPDDKVLVILGYDPEKGKVYVAVYDPKTGEVRFKEFDNLEDEIKDSAGGSAGGSAGG [r17_300_TrMRF] | 1.91 ± 0.17 kcal/mol | 2.16 ± 0.11 kcal/mol | 1.76 ± 0.08 kcal/mol |
| SAGGSAVEFTEPGAELLSEEKLPDGTVVKRVLLPDGSVLLLLPDNSIKTRSLSNPNTSLSEWDPELSAGGSA [r15_692_JUSTAS] | 0.491 ± 0.26 kcal/mol | 0.613 ± 0.17 kcal/mol | 0.332 ± 0.32 kcal/mol |
| SDPGHKFKMEIVREIYLPGQIRIFVHKMEHPNGNPWVNVMVRNPDGQMEPIAMVPSDDPDAKDEALKLIKSA [r9_1069_TrROS] | 0.391 ± 0.1 kcal/mol | 0.035 ± 0.12 kcal/mol | 0.506 ± 0.14 kcal/mol |
| SAKTLTIEELAKKLKEELEKKTGKKLSKEELKKKALELAKKLAEEKGLKIKSVKVEEKDGKLTVTVEVESAG [r14_147_TrROS_Hall] | 2.84 ± 0.15 kcal/mol | 3.2 ± 0.16 kcal/mol | 3.26 ± 0.082 kcal/mol |
| MKIRVEITVRNPDGEELKIEIVLSLEELEELRKEGKPLTLEELKALIEERARKLAEELDLEVEIKIVEIEPS [r1_174_TrROS_Hall] | > 6 kcal/mol | 4.11 ± 0.35 kcal/mol | 5.06 ± 0.89 kcal/mol |

| Sequence | folding stability dG unfold [1] | folding stability dG unfold [2] | folding stability dG unfold [3] |
| --- | --- | --- | --- |
| SAGGSAGGSAGGSWLVRIPGHPIIFKGPEDQAEGIARELQKNGKPIEIEIIDPDEMKKFSAGGSAGGSAGGS [r4_131_TrROS] | 0.643 ± 0.23 kcal/mol | 0.286 ± 0.12 kcal/mol | 1.12 ± 0.14 kcal/mol |
| SAGGSAGGKEKLIVKIKIEKKVKLENGEEKKVKKTIVVEMTPEEVKELLKKLKKENVTEVEIFPSAGGSAGG [r6_984_TrROS_Hall] | 2.55 ± 0.26 kcal/mol | 2.7 ± 0.17 kcal/mol | 2.51 ± 0.31 kcal/mol |
| SAKKVIIEVKSLEELLKAAKEAAKKGEKVEVLVKLKDGYYVKITMEFDKKTKKIKIKKIEIKPIKKEDLSAG [r14_455_TrROS_Hall] | 2.46 ± 0.38 kcal/mol | 2.51 ± 0.12 kcal/mol | 2.75 ± 0.21 kcal/mol |
| SAMTTTETFEEGDYVYTVITTKIPSSLPPDSVVTIPVTTPLGAESEVVSEPGGTITVKVRLKKEDPELLSAG [r14_754_JUSTAS] | -0.176 ± 0.13 kcal/mol | -1.57 ± 0.3 kcal/mol | 0.14 ± 0.088 kcal/mol |
| SAGGSAGGSAETFTLPGGYTITVEPTEGGVKVTITHPDGSKGEVELGPTEPLVVDPDGATILASAGGSAGGS [r12_281_TrMRF] | 1.66 ± 0.1 kcal/mol | 1.49 ± 0.079 kcal/mol | 1.66 ± 0.093 kcal/mol |
| NKAQKLARSLARKFMRPHGYPMEIDPENNSIRFPNGEPIMEIPIDIVLLDDDGKIVEEINIPIRIRMRPPKS [r1_318_TrROS] | 0.762 ± 0.23 kcal/mol | 0.695 ± 0.16 kcal/mol | 0.782 ± 0.27 kcal/mol |
| SAERTPVREADIPIPGLPVVVRVRTYAEAVELARKSGVPVVVETVEVEVFLPDGSRVRFPAPGLLVLDGSAG [r14_100_TrMRF] | 1.5 ± 0.036 kcal/mol | 1.41 ± 0.0081 kcal/mol | 1.55 ± 0.055 kcal/mol |
| SAGGSGMIYVIKIKLEPTIKPGKKKEFEFELVLEATPEEIEEVLEKIKKLPKNIKIKEIKIEVFPESAGGSA [r2_75_TrMRF] | 2.6 ± 0.32 kcal/mol | 2.08 ± 0.12 kcal/mol | 3.18 ± 0.073 kcal/mol |
| SAGGSATKELVLEIAEEIAPRFQKEGWPIKRVTVKVVRTPDGQVTIPVRIRFPDGKPIMQWNITIPSAGGSA [r15_232_TrROS] | 0.779 ± 0.17 kcal/mol | 1.03 ± 0.055 kcal/mol | 0.00828 ± 0.36 kcal/mol |
| SAAPDEVVTLEFTVPVVTTFEPGAPYVAPARLTVTFHPPDRVEIRLVSPDGRLVATRTVPPSVLLSEVISAG [r14_559_TrMRF] | 1.88 ± 0.081 kcal/mol | 1.62 ± 0.032 kcal/mol | 2.03 ± 0.041 kcal/mol |
| SMKLIGYDPVTGKPVTLTFDPETKTVTVTHPNGEKITAPAESITFDPETGTVTITLPTKTVTFYVPPEANSA [r9_325_TrMRF] | 4.82 ± 0.2 kcal/mol | 3.89 ± 0.27 kcal/mol | 4.93 ± 0.12 kcal/mol |
| SAGGSAGGSAGGDPNDKPKEERRIKIKVRPTNVQRDPDNGMLWYSWRLEGLSITIMIPASAGGSAGGSAGGS [r10_962_TrROS] | 2.85 ± 0.1 kcal/mol | 1.86 ± 0.08 kcal/mol | 3.43 ± 0.035 kcal/mol |
| SAGGSAGGIMIDSPEQMEEFAKDFFQNGYHEVPIHVMDPNGNWQTFPFTIEVPPPKPEPDPGKKSAGGSAGG [r6_258_TrROS] | 0.111 ± 0.29 kcal/mol | -0.648 ± 0.12 kcal/mol | 0.411 ± 0.25 kcal/mol |
| SAGGSAGGDRIKIRFPDYRYEIEIPPGIESITTIQFHKDGWFTLTIPGNGQQIKIPIPPPDDDPSAGGSAGG [r6_370_TrROS] | 1.51 ± 0.24 kcal/mol | 1.23 ± 0.057 kcal/mol | 1.73 ± 0.15 kcal/mol |
| MRLRLTFRLPDGTEFRVERVEVLRVEPRGDRVVIPVRAYFTPEERRRLEELIPGLRDRPPLVVEVEIVLTGS [r1_35_TrMRF] | 3.96 ± 0.072 kcal/mol | 3.05 ± 0.083 kcal/mol | 4.38 ± 0.055 kcal/mol |
| SAGGSAGGSEDKYIIRVEVLLPNKKRTYVLEEPEKGIEAFKKRLEKEYPDEPIVEVRIEVLPASAGGSAGGS [r12_429_TrMRF] | 1.19 ± 0.1 kcal/mol | 0.874 ± 0.032 kcal/mol | 1.37 ± 0.11 kcal/mol |
| SAGGSAKVIVEELPDGSIKIYFPETGAVIVLNPETGEAVVFVNPKKKNNEPPSLDDVLKAAKEALGSAGGSA [r15_735_TrMRF] | 1.28 ± 0.063 kcal/mol | 0.413 ± 0.041 kcal/mol | 1.6 ± 0.019 kcal/mol |
| SAGRKIEIHVPYDELRELFGPGQTAEDLADWIAQEGYQIEDIEVEPEPNPNNGKKYYRVTFEVKPPKKSAGG [r19_376_TrROS] | 0.95 ± 0.11 kcal/mol | 0.345 ± 0.054 kcal/mol | 1.28 ± 0.12 kcal/mol |
| SAGISIRFPGMQIEIDEIERDNNKVVIRVEVTMPAKNPNGQPQMMTHTMWIVIKIPPPPPPADPADAKKSAG [r5_70_TrROS] | 3.51 ± 0.23 kcal/mol | 2.81 ± 0.12 kcal/mol | 3.96 ± 0.053 kcal/mol |
| SAGGSAGGMLEIEFEKPLPNGETLKIKVFFDKDKPEALVEIENPSTNEKKFYNFTSIDEVIEKESAGGSAGG [r6_464_TrMRF] | 1.49 ± 0.24 kcal/mol | 1.03 ± 0.048 kcal/mol | 1.7 ± 0.2 kcal/mol |
| SAGGSAGGKLSIPIHIPGLTPEEARKIVKYFAAAGIPPDNVTIEVQPVPPVPPMTPEEMEKHNKSAGGSAGG [r6_246_TrROS] | 0.614 ± 0.2 kcal/mol | -0.288 ± 0.24 kcal/mol | 0.988 ± 0.13 kcal/mol |
